Measured values from publication PMC8907193, “The YΦ motif defines the structure-activity relationships of human 20S proteasome activators” (Nature Communications, 2022).
Read-outs that look alike come from different tables or passages of the source.

Tests used:
[1] = molecular target: human 20S proteasome (human) (UniProt P60900)
[2] = molecular target: biotinylated human 20S proteasome (human) (UniProt P60900); experiment: BLI

| Substance | EC50 of stimulation of h20S activity [1] | Kd [2] | koff [2] | further results |
| --- | --- | --- | --- | --- |
| PA26^AY | 8.3 nM | – | – | – |
| PA26^AY (from UniProt Q9U8G2) | – | 0.28 nM | 0.0004 s⁻¹ | – |
| PA26^E102A (disabled-loop mutant) (from UniProt Q9U8G2) | – | – | – | Kd ([2]; natural protein): > 100 nM |
| PA26^YA | > 3000 nM | – | – | stimulation of h20S activity, loss against PA26^YY [1]: 80 % reduction |
| PA26^YA (from UniProt Q9U8G2) | – | 36 nM | 0.011 s⁻¹ | – |
